Data on one molecule can be found in PMC6208348 (Nature Communications, 2018).

The assay has as its target GST-fused Grb2 SH2 domain (human, UniProt P62993 60-152). Nature of the assay: peptide or protein array. Particulars: both partners purified.

Non-standard residues stand in square brackets, D forms with d. No end group written: not given here. pY = N[C@@H](Cc1ccc(OP(=O)(O)O)cc1)C(=O)O

GST-fused Grb2 SH2 domain, sequence (P62993 60-152): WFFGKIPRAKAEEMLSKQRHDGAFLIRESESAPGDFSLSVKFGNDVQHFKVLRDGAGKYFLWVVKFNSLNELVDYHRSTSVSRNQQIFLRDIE

For DPS[pY]VNVQNL [Shc1 pTyr317 peptide (DPSpYVNVQNL) on the permutation array], the binding result is on record as “binds”.
